{"source": "paper PMC10774421", "about": "(Nature Communications, 2024)", "key": {"[1]": {"target": "HiSiaQM OFS #2 (Y252C/M297C in HiSiaQM ΔCys) (Haemophilus influenzae) (UniProt P44543)", "test": "single-molecule TIRF microscopy"}, "HiSiaP": {"target": "T1, HiSiaP (Haemophilus influenzae, UniProt P44542, S67C/S194C)", "T1 construct": "gene siaP", "settings": "50 mM Tris pH 8, 50 mM NaCl; average of triplicates; CLOSED #1, no oxidant added"}, "wild-type HiSiaQM": {"target": "T2, wild-type HiSiaQM (Haemophilus influenzae, UniProt P44543)", "T2 construct": "also called wt HiSiaQM; HiSiaQM wt", "test": "single-molecule TIRF microscopy", "settings": "both partners purified"}}, "data": [{"molecule": "AF647-labeled wild-type HiSiaP (K254C) (from UniProt P44542 24-329) (natural protein)", "values": [{"measurement": "change of the rate of interactions (against the wild-type proteins)", "setting": "[1]", "result": -50, "unit": "%"}]}, {"molecule": "CC(=O)N[C@H]1[C@H]([C@H](O)[C@H](O)CO)OC(O)(C(=O)O)C[C@@H]1O", "note": "(stereo partly drawn) [Neu5Ac]", "values": [{"measurement": "Kd", "setting": "HiSiaP", "result": 800, "unit": "nM"}]}, {"molecule": "AF555-VHHQM3 (S85C) (VHH) VHH: QLQLVETGGGLVQPGGSLRLSCTASRVTLDYHDIGWFRQAPGKEREGVSYISSSGGSTNYADSVKGRFTISRDNAKNTVYLQMNCLKPEDTAVYYCARSSAYGSSWLNPSRYDYWGQGTQVTVSS", "values": [{"measurement": "binding result", "setting": "wild-type HiSiaQM", "result": "binds"}]}]}
